Assay [1] concerns the target HA of A/Texas/50/2012 (H3N2) (influenza A virus (H3N2)).
Assay [2] concerns the target HA of A/Solomon Islands/03/2006 (H1N1) (influenza A virus (H1N1)).
Assay [3] concerns the target HA of A/Texas/36/1991 (H1N1) (influenza A virus (H1N1)).

For orientation: EC50 means the concentration needed to bring the measured effect to its halfway point.

B1: rFluA-20 heavy chain mutant Y34A (antibody, V domains shown)
VH: QVQLQESGPGLVKPSETLSLTCSVSGVSVTSDIAYWTWIRQPPGKGLEWIGYIFYNGDTNYNPSLKSRVTMSIDTSKNEFSLRLTSVTAADTAVYFCARGTEDLGYCSSGSCPNHWGQGTLVTVSS
VL: DIQMTQSPSSLSASIGDRVTITCRPSQNIRSFLNWFQHKPGKAPKLLIYAASNLQSGVPSRFSGSGSGTEFTLTIRSLQPEDFATYYCQQSYNTPPTFGQGTKVEIK
Consider B1, for which the EC50 in assay [1] was 0.16 µg/mL; in assay [2] it was 0.04 µg/mL; in assay [3], 0.05 µg/mL.

B2: rFluA-20 heavy chain mutant T96A (antibody, V domains shown)
VH: QVQLQESGPGLVKPSETLSLTCSVSGVSVTSDIYYWTWIRQPPGKGLEWIGYIFYNGDTNYNPSLKSRVTMSIDTSKNEFSLRLTSVTAADTAVYFCARGAEDLGYCSSGSCPNHWGQGTLVTVSS
VL: DIQMTQSPSSLSASIGDRVTITCRPSQNIRSFLNWFQHKPGKAPKLLIYAASNLQSGVPSRFSGSGSGTEFTLTIRSLQPEDFATYYCQQSYNTPPTFGQGTKVEIK
On to B2, for which the EC50 came out at 0.07 µg/mL in assay [1], 0.03 µg/mL in assay [2] and 0.04 µg/mL in assay [3].

B3: rFluA-20 heavy chain mutant E97A (antibody, V domains shown)
VH: QVQLQESGPGLVKPSETLSLTCSVSGVSVTSDIYYWTWIRQPPGKGLEWIGYIFYNGDTNYNPSLKSRVTMSIDTSKNEFSLRLTSVTAADTAVYFCARGTADLGYCSSGSCPNHWGQGTLVTVSS
VL: DIQMTQSPSSLSASIGDRVTITCRPSQNIRSFLNWFQHKPGKAPKLLIYAASNLQSGVPSRFSGSGSGTEFTLTIRSLQPEDFATYYCQQSYNTPPTFGQGTKVEIK
Turning to B3, the EC50 was 0.18 µg/mL in assay [1], 0.07 µg/mL in assay [2] and 0.05 µg/mL in assay [3].

These data come from patent US20210252150A1.
